Assay [1] deals with CapH C-terminal domain (residues 67-107) with Ile99 to Met mutation, crystallised (E. coli MS115-1). Kind of assay: crystal structure.
For assay [2], the target named is CapH C-terminal domain (residues 67-107), crystallised (E. coli MS115-1). The experiment in a line: crystal structure.
The target of assay [3] is MBP-fused CapH (I99M) mutant (E. coli MS115-1). Kind of assay: SEC-MALS. A general note: In gel filtration, larger molecules generally elute earlier.

As usually defined, the stoichiometry N is the number of molecules, sites or subunits per partner or assembly. “CapH C-terminal domain (residues 67-107) with Ile99 to Met mutation, crystallised (domain or fragment)”: the stoichiometry N in assay [1] was 2. In assay [2], “CapH C-terminal domain (residues 67-107), crystallised (domain or fragment)” came in with a stoichiometry N of 4. In turn, “MBP-fused CapH (I99M) mutant (natural protein)” registered a stoichiometry N in assay [3] of 2.

The record behind these values is publication doi:10.1101/2022.04.27.489752.
